Target: T1, Human c-Met ECD (Flag and strep tag) (human, UniProt P08581 25-932)
T1 construct: also called HMet; Human Wt c-Met; not shown: Flag and strep tag
Test: ELISA; mAb immobilized (2 µg/ml), c-Met protein added, streptavidin-HRP

T1 sequence (P08581 25-932): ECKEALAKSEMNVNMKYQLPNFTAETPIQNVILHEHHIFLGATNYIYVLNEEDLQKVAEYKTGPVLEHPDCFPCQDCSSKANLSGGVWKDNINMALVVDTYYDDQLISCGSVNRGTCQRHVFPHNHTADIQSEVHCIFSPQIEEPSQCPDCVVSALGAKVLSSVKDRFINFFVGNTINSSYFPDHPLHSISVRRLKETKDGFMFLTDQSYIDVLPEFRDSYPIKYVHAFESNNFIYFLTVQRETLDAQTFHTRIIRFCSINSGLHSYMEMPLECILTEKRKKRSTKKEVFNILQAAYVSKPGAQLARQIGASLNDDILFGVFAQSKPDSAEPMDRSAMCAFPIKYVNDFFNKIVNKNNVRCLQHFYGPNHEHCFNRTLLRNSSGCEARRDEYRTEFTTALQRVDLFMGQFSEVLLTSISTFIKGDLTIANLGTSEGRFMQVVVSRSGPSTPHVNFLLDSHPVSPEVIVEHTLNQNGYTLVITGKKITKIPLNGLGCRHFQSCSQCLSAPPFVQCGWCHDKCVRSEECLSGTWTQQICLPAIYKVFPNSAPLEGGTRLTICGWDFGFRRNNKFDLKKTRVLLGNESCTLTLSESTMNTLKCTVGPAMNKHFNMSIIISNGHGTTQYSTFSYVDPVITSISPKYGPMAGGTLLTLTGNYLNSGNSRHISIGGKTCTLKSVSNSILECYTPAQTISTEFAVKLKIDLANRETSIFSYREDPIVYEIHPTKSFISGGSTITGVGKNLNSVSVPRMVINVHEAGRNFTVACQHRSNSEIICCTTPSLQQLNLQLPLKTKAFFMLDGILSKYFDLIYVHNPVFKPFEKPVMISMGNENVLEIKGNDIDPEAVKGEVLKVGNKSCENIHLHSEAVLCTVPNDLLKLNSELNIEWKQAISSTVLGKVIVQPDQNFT

EC50: 0.045 µg/mL
B1: 48A2 (antibody, V domains shown)
VH: EVQLVQPGVELRNPGASVKVSCKASGYIFTMNSIDWVRQAPGQGLEWMGRIDPEDGGTKYAQKFQGRVTFTADTSTSTAYVELNSLRSEDTAVYYCARVDDYYLGYDYWGQGTQVTVSS
VL: DIVMTQTPTSVTASAGDKVTINCKSSQSVLFSSNQKNYLAWYQQRLGQSPRLLIYWASIRESGVPDRFSGSGSATDFTLTISNFQPEDAAVYYCQQGYSFPYSFGSGTRLEIR

Source: patent US20140286976A1 (ARGEN X B V, published 2014)
